Consider four molecules from US20140193432A1 (LIVTECH, published 2014).

As a reminder, the EC50 is the midpoint of the concentration-response curve.

The target of experiment [1] is T1, recombinant protein of the hDlk-1 extracellular region (hDlk-1-His) (human, UniProt P80370 24-303).
T1 construct: not shown: His tag
T1 sequence: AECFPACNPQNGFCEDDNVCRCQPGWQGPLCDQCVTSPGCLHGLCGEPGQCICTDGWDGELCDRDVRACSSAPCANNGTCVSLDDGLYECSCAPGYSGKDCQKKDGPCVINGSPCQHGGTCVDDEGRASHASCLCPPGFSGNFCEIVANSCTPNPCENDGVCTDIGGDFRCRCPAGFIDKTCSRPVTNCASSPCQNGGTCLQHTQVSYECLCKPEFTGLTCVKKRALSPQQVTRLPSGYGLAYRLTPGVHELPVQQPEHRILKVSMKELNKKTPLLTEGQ
Kind of experiment: ELISA second format: hDlk-1-His coated at 0.5 µg/ml, antibody titrated from 5 µg/ml.

Experiment [2] addresses T1, recombinant protein of the hDlk-1 …. As to the kind of experiment: ELISA third format: hDlk-1-His coated at 0.05 µg/ml, purified antibodies.
Method: As a third format of ELISA, hDlk-1-His to be coated on a 96-well plate was diluted to a concentration of 1/10, and 0.05 μg/ml hDlk-1-His was then added in an amount of 100 μl/well to the 96-well plate, followed by coating at 4° C. overnight, so as to produce an ELISA plate coated with a low concentration of hDlk-1-His.

Changes are numbered by the printed parent chain. Numbers in names are those of the source.

B1: humanized BA-1-3D IgG1/κ antibody (HuBA-1-3D-1) (antibody, V domains shown)
VH: QVQLVQSGAEVKKPGASVKVSCKASGYTFTDYAMHWVRQAPGQGLEWIGVISTYYGNTNYNQKFKGKATMTVDTSTSTAYMELRSLRSDDTAVYYCARGGLREYYYAMDYWGQGTMVTVSS
VL: DIVMTQSPDSLAVSLGERATINCKSSQSLLNSSNQKNYLAWYQQKPGQPPKLLVYFASTRESGVPDRFSGSGSGTDFTLTISSLQAEDVAVYYCQQHYSTPPTFGQGTKLEIKR
In the case of B1, in experiment [1], the half-maximal effective concentration (EC50) stood at 0.148 µg/mL.

B2: HuBA-1-3D-1-A24G/T73K (antibody, human IgG1, kappa, V domains shown)
VH: B1 VH with A24G, T74K
VL: B1 VL
notes: human IgG1/κ; also called A24G/T73K mutant; HuBA-1-3D-A24G/T73K
Consider B2, for which the 50% effective concentration (EC50) in experiment [2] was found to be 0.0355 µg/mL.

B3: humanized BA-1-3D IgG1/κ antibody (HuBA-1-3D-2) (antibody, V domains shown)
VH: B1 VH with K67R
VL: B1 VL
For the molecule B3, the EC50 in experiment [1] was found to be 0.154 µg/mL.

B4: mouse-human chimeric BA-1-3D IgG1/κ antibody (ChBA-1-3D) (antibody, V domains shown)
VH: QVQLQQSGPELVRPGVSVKISCKGSGYTFTDYAMHWVKQSHAKSLEWIGVISTYYGNTNYNQKFKGKATMTVDKSSSTAYMELARLTSEDSAIYYCARGGLREYYYAMDYWGQGTSVTVSS
VL: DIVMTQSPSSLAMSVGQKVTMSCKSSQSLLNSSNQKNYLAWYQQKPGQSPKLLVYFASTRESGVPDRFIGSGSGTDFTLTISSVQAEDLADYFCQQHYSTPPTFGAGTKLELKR
As to B4, the EC50 in experiment [1] came out at 0.116 µg/mL; in experiment [2] it was 0.0254 µg/mL.
